The nanobody polyreactivity screen of Harvey et al. (2022)

Experiment: yeast display, Sf9 membrane polyspecificity reagent, FACS + sequencing; frameworks hold sequencing errors
In short: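 A synthetic nanobody library was expressed on Saccharomyces cerevisiae BJ5465 by galactose induction for 36–48 hours. The library was stained for 1 hour at 4 °C with 10% biotinylated, detergent-solubilized Sf9 membrane reagent and enriched with streptavidin microbeads before FACS. Low and high (top ~1%) gates were set on anti-HA fluorescence for expression and streptavidin fluorescence for reagent binding, and each polyreactivity label reflects the gate of origin.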

Sequence	polyreactivity (PSR sort gate)
QVQLVESGGGLVQAGGSLRLSCAASGRILLTYAMGWYRQAPGKERELVAAISSDSRTYYADSVKGLFTISRDNAKNTVYLQMNSLKPEDTAVYYCVRRRYKYDYWGQGTQVTVSS	low polyreactivity
QVQLVESGGGLVQAGGSLRLSCAASGRILLYNAMGWYRQAPGKERELVAAISRSGGSTYYADSVKGRFTISRDNAKNTVYLQMNSLKPEDTAVYYCAAQHGYPRYYYWGQGTQVTVSS	high polyreactivity
QVQLVESGGGLVQAGGSLRLSCAASGRILNTYTMGWYRQAPGKERELVAAITSRGGSTYYADSVKGRFTISRDNAKNTVYLQMNSLKPEDTAVYYCAAGYPYDYWGQGTQVTVSS	high polyreactivity
QVQLVESGGGLVQAGGSLRLSCAASGRILPGNAMGWYRQAPGKERELVATITNGGRTYYADSVKGRFAISRDNAKNTVYLQMNSLKPVDTAVYYCAAVVVRFIYVYFEFEWGQGTQVTVSS	low polyreactivity
QVQLVESGGGLVQAGGSLRLSCAASGRILPLYAMGWYRQAPGKERELVADITGSDGSTYYADSVKGRFTISRDNAKNTVYLQMNSLKPEDTAVYYCATDAIGRTPSDPWDYYYWGQGTQVTVSS	low polyreactivity
QVQLVESGGGLVQAGGSLRLSCAASGRILPWYAMGWYRQEPGKERELVARIRSTDSSNYADSVKGRFTISRDNAKNTVYLQMNSLKPEDTAFYYCAKVQWGFPYAWLGSDYWGQGTQVTVSS	low polyreactivity
QVQLVESGGGLVQAGGSLRLSCAASGRILRSNAMGWYRQAPVKERELVATISQRGGSTYADSVKGRFTISRDNAKNTVYLQMNSLKPEDTAVYYCNVGVPIGGFMSYWGGDYWGQGTQVTVSS	low polyreactivity
QVQLVESGGGLVQAGGSLRLSCAASGRILRVYAMGWYRQAPGKERELVAAISSGGSTNYADSVKGRFTISRDNAKNTVYLQMNSLKPEDTAVYDCAATVRGVGYRYYYWGQGTQVTVSS	high polyreactivity
QVQLVESGGGLVQAGGSLRLSCAASGRILRYNAMGWYRQAAGKERELVAAISSGGSTYADSVKGRFTISRDNAKNTVYLQMNSLKPDDTAVYYCNAPSVGAAFDYWGQGTQVTVSS	high polyreactivity
QVQLVESGGGLVQAGGSLRLSCAASGRILTTNAMGRYRQAPGKERELVATISTGSGRTYYADSVKGRFTISRDNAKNTVYLQMNSLKPEDTAVYYCAASRTLRKHRYEYWGQGTQVTVSS	high polyreactivity
QVQLVESGGGLVQAGGSLRLSCAASGRILTYYAMGWYRPAPGKERELVAAISWRAGSTYYADSVKGRFTISRDNAKNTVYLQMNSLKPEDTAVYYCAADLPYWYNRKPIFPYYYWGQGTQVTVSS	high polyreactivity
QVQLVESGGGLVQAGGSLRLSCAASGRILVGYAMGWYRQAPGKERELVAAITGSGASTYYADSVKGRFKISRDNAKNTVYLQMNSLKPEDTAVYYCAASYFNYGVGIWYDYWGQGTQVTVSS	high polyreactivity
QVQLVESGGGLVQAGGSLRLSCAASGRILVSYAMGGYRQAPGKERELVAAISRSGGSTYYADSVKGRFTISLDTAKNTVYLQMNSLKPEDTAVYYCNVYRFSRYDYWGQGTLVTVSS	high polyreactivity
QVQLVESGGGLVQAGGSLRLSCAASGRILWDYAMGWYRQAPGKERELVAAISTSSGSTYYADSVKGRFTISRDNAKNTVKLQMNSLKPEHTAVYYCAADNDYSPPWFEYWGQGTQVTVSS	low polyreactivity
QVQLVESGGGLVQAGGSLRLSCAASGRILWWYAMGWYRQAPRKEREFFAAITTSGGSTYYADSVKGRFTISRDNAKNTVYLQMTSLKPEDNAVYYCAADLFVRNLVYTYDYDYWGQGTQVTVSA	high polyreactivity
QVQLVESGGGLVQAGGSLRLSCAASGRILWYYTMGWYRQAPGKERELVAAISSGGRTHYADSVKGRFTISRDNAKNTVYLQMNSLKPVDTAVYYCAAKYGWGRFNYDYWGQGTQVTVSS	high polyreactivity
QVQLVESGGGLVQAGGSLRLSCAASGRILYAYAMGWYRQAPGKERELVAAITWGGGNTYYADSVKGRFTISRDNAKNTVYLQMNSLKPEDTAVYYCAADASTVYSTVPEYDFWGQGTQVTVSS	low polyreactivity
QVQLVESGGGLVQAGGSLRLSCAASGRILYGYAMGWYRQAPGKERELVAGISWRGGSTYYADSVKGRFTISRDNAKNTVYLQMNSLKPEDTAVYYCAARGWPSQVPVRVFRYDYWGQGTQVTVSS	high polyreactivity
QVQLVESGGGLVQAGGSLRLSCAASGRILYGYAMGWYRQAPGKERELVASITWSGGSTYADSVKGRFTISRDNAKNTVYLQMNSLKPEDTAVYYCATRRGPKWQWLTYGYWGQGTKVTVSS	low polyreactivity
QVQLVESGGGLVQAGGSLRLSCAASGRILYKYAMGWYRQAPGKERELVAAISRRGGSTFYADSVKGRFTISRDNAKNTVYLQMNSLKPEDTAVYYCAAGSTRYAGWTYNYWGQGTQVTVSS	high polyreactivity
QVQLVESGGGLVQAGGSLRLSCAASGRILYKYAMGWYRQAPGKERELVAAISWRGTTTYYADSVKGRFTISRDNAKNTVYLQMNSLKPEDTAVYYGAIDRSYGYFSRPVSQYDYWGQGTQVTVSS	high polyreactivity
QVQLVESGGGLVQAGGSLRLSCAASGRILYPYAMGWYRQAPGTERELVAAITFRGGNTYYADSVKGRFTISRDNAKNTVYLQMNSLKPEDTAVYYCAKRGGYWHKFDYWGQGTQVTVSS	high polyreactivity

Sequence	polyreactivity (PSR sort gate)
QVQLVESGGGLVQAGGSLRLSCAASGRILYQYAMAWYRQAPGKERELVASISGRSGRTRYADSVKGRFTISRDNAKNTVYLQMNSLKPEDTAVYYCNAGSSVLKYDYWGQGTQVTVSS	low polyreactivity
QVQLVESGGGLVQAGGSLRLSCAASGRILYRNAMGWYRQAPGKERELVAAITTRGTSTYYADSVKGRFTISRDNAKNTVYLQMNSLKPEDTAVYYCAADSWFSYRGPLYYWGQGTQVTVSS	high polyreactivity
QVQLVESGGGLVQAGGSLRLSCAASGRILYRYAMGWYRQAPGKERELVAAITWRGGTTYYADSVKGRFTISRDNAKNTVYLQMNSLKPEDTAVYYCNADWWRTLESDYWGQGTQVTVSS	low polyreactivity
QVQLVESGGGLVQAGGSLRLSCAASGRILYSYAMGWYRQAPGKERELVASISLSGGRTYADSVKGRFTISRDNAKNTVYLQMNSLKPEDTAVYYCNASIRTSRYLWQFDYWGQGTQVTVSS	high polyreactivity
QVQLVESGGGLVQAGGSLRLSCAASGRILYVNTMGWYRQAPGKERELVAGITSRVGSTYYADSVKGRFTISRDNAKNTVYLQMNSLKPEDTAVYYCNARDKFYVPSLYAYDYWGQGTQVTVSS	low polyreactivity
QVQLVESGGGLVQAGGSLRLSCAASGRILYVYAMGWYIQAPGKERELVAAITSGGSTHYADSVKGRFTISRDNAKNTVYLQMNSLKPEDTAVYYCAAYTLRNRGGFNYWGQGTQVTVSS	high polyreactivity
QVQLVESGGGLVQAGGSLRLSCAASGRILYYYAMGWYRQAPGKERELVAAITSGGSTYADSVKGRFTISRDNAKNTVYLQMNSLKPEDTAVYYCNARPVYGSRFYSAVRMEYWGQGTQVTVSS	low polyreactivity
QVQLVESGGGLVQAGGSLRLSCAASGRIRRYYAMGWYRPAPGKEMELVAVITSSDGSTYYADSVKGRFTISRDNAKTTVYLQMNSLKPEDTAVDYCAAAPLWRLDSWSDPYRRYDYWGQGTQVTVSS	low polyreactivity
QVQLVESGGGLVQAGGSLRLSCAASGRISDVYAMGWYRQAPGKERELVAVISWRGGTTRYADSVKGRFTISRDNAKNTVYLQMNSLKAEDTAVFYCAAKTVLWGQGTQVTVSS	high polyreactivity
QVQLVESGGGLVQAGGSLRLSCAASGRISESNDMGWYRQAPGKERELVAAISSSGGSTYYADSVKGRFTISRDNAKNTVYLQMNSLKPVDTAVYYCNAVYYRTVLKIGVYEYDYWGQGTQVTVSS	low polyreactivity
QVQLVESGGGLVQAGGSLRLSCAASGRISFRYAMGWYRQAPGKERELVAAINRGGITNYADSVKGRFTISRDNAKNTVYLQMNSLKPEDTAVYYCAARYASPRYKSKMDYWGQGTQVTVSS	high polyreactivity
QVQLVESGGGLVQAGGSLRLSCAASGRISFRYAMGWYRQAPGKERELVAAINRGGITNYADSVKGRFTISRDNAKNTVYLQMNSLKTEDTAVYYCAARYASPRYKSKMEYWGQGTQVTVSS	high polyreactivity
QVQLVESGGGLVQAGGSLRLSCAASGRISGGYAMGWYRQAPGKERELVAVISSGGRTYYADSVKGRFTISRDNAKNTVDLHMNSLKPEVTGVYYCNAYTWGIVDNYDYWGQGTQVTVSS	low polyreactivity
QVQLVESGGGLVQAGGSLRLSCAASGRISNNAMGWYRQAPGKERELVAAITYRGSSTYYADSVKGRFTISRDNAKNTFYLQMISLKPEDTAVYYCAAQRSYAYEYWGQGTQVTVSS	high polyreactivity
QVQLVESGGGLVQAGGSLRLSCAASGRISQIYAMGWYRQAPWKERELVARITSTDSTYYADSVKGRFTISRDNAKNTVYLQMNSLKPEDTAVYYCAASWWSPYDYWGQGTQVTVSS	low polyreactivity
QVQLVESGGGLVQAGGSLRLSCAASGRISQNAMGWYRQAPGKERELVAAITFSGGSTYYADSVKGRFTISRDNAKNTVYFQMNSLKPEDTAVYYCNADWPAQWHYYDSKQDDYWGQGTQVTVSS	low polyreactivity
QVQLVESGGGLVQAGGSLRLSCAASGRISRVYAMGWYRQAPGKERELVAAITSSGGSTYADSVKGRFTISRDNAKNTVYLQMNSLKPEDTAVYYCAADSYWYRFLKSRYDYWGQGTQVTVSS	low polyreactivity
QVQLVESGGGLVQAGGSLRLSCAASGRISRYNTLGWSSQAPGKERELVAVISWSGASTYYADSVKGRFTISRDNAKNTVYLQMNSLKPEDTAVYYCAAYYRWYNYDYWGQGTQVTVSS	high polyreactivity
QVQLVESGGGLVQAGGSLRLSCAASGRISSLYAMGWYRQAPGKERELVAGITWRGGSTYYADSVKGRFTISRDNAKNTVYLQMNSLKPEDTAVYYCNAVWVQQVVGDGKRTWNFWYDYWGQGTQVTVSS	low polyreactivity
QVQLVESGGGLVQAGGSLRLSCAASGRISSQYAMGWYRQAPGKERELVAAISTSGDRTYYADSVKGRFTISRDNAKNTVYLQMNSLKPEDTAVYYCAKDGPYTYGRDIYEYWGQGTQVTVSS	low polyreactivity
QVQLVESGGGLVQAGGSLRLSCAASGRISSSYAMGWYRQAPGKEREFVAGITSIGGRTYYADSVKGRFTISRDNAKNTVYLQMNSLKPEDTAVYYCATTSSWRYGYWGQGTQVTVSS	high polyreactivity
